Results reported in patent US20190201496A1 (BRIGHAM AND WOMEN S HOSPITAL, published 2019).

Biological target: neonatal Fc receptor (FcRn) (UniProt P55899 24-297, limits assumed)
Assay: comparison of observed KD values; the assay for FcRn is not described here

Chain of neonatal Fc receptor (FcRn) (P55899 24-297 limits assumed, form in doubt, chain 1 of 2): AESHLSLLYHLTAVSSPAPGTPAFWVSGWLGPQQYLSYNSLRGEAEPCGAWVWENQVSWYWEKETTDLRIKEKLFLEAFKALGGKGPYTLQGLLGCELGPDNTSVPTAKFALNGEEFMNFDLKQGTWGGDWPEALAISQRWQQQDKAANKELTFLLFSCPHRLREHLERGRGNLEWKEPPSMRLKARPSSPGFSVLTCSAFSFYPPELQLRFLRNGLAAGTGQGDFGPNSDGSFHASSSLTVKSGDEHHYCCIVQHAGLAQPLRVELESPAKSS
Chain of neonatal Fc receptor (FcRn) (chain, as listed by the source limits assumed, form in doubt, chain 2 of 2): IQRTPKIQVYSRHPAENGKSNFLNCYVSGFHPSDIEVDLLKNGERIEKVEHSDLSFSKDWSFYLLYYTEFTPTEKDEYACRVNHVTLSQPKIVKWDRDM

B1: human alpha-fetoprotein (AFP) (ligand)
chain: RTLHRNEYGIASILDSYQCTAEISLADLATIFFAQFVQEATYKEVSKMVKDALTAIEKPTGDEQSSGCLENQLPAFLEELCHEKEILEKYGHSDCCSQSEEGRHNCFLAHKKPTPASIPLFQVPEPVTSCEAYEEDRETFMNKFIYEIARRHPFLYAPTILLWAARYDKIIPSCCKAENAVECFQTKAATVTKELRESSLLNQHACAVMKNFGTRTFQAITVTKLSQKFTKVNFTEIQKLVLDVAHVHEHCCRGDVLDCLQDGEKIMSYICSQQDTLSNKITECCKLTTLERGQCIIHAENDEKPEGLSPNLNRFLGDRDFNQFSSGEKNIFLASFVHEYSRRHPQLAVSVILRVAKGYQELLEKCFQTENPLECQDKGEEELQKYIQESQALAKRSCGLFQKLGEYYLQNAFLVAYTKKAPQLTSSELMAITRKMAATAATCCQLSEDKLLACGEGAADIIIGHLCIRHEMTPVNPGVGQCCTSSYANRRPCFSSLVVDETYVPPAFSDDKFIFHKDLCQAQGVALQTMKQEFLINLVKQKPQITEEQLEAVIADFSGLLEKCCQGQEQEVCFAEEGQKLISKTRAALGV
notes: also called hAFP; human AFP
fold higher affinity than AFP to β2M: 100 fold
